Experiment: yeast display, Sf9 membrane polyspecificity reagent, FACS + sequencing; frameworks hold sequencing errors
Outline: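 Genes from sorted yeast were amplified by colony PCR, read by MiSeq 2 × 250 sequencing and filtered on CDR length. These cells carried a synthetic nanobody library in Saccharomyces cerevisiae BJ5465 and were sorted by FACS into low and high (top ~1%) gates on anti-HA and streptavidin fluorescence. Polyreactivity is labelled according to the gate of origin.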

| Sequence | polyreactivity (PSR sort gate) |
| --- | --- |
| QVQLVESRGGLVQAGGSLRLSCAASGYTFDANAMGWYRQAPGKERELVASISSISDSTDYADSVKGRFTISRDNAKNTVYLQMNSLKPVDTAVYYCARSDVKPGRQERDYWGQGTQVTVSS | low polyreactivity |
| QVQLVESGGGLVQAGGSLRLSCAASGRISVTYAMGWYRQAPGKERELVAAINTSGGTTYYADSVKGRFTISRDNAKNTVYLQMNSLKPEDTAVYYCNAVFYGGVGDNDYWGQGTQVTVSS | high polyreactivity |
| QVQLVDSGGGLVQAGGSLRLSCAASGRIFRPYAMGWYREAPRKERELVAAISFSGGSTYYADSVKGRFTISRDNAKNTVYLQMNSVKPEDTAVYYCNAVFINKYGKYGDWGQGTQVTVSS | high polyreactivity |
| QVQLVESGGGLVQAGGSLRLSCAASGRTFRYNAMGWYRQAPGKERELVAAIRYSGGRTYADSVKGRFTISRDNAKNTVYLQMNSLKPEDTAVYYCNADSIRRGYRYDYWGQGTQVTVSS | high polyreactivity |
| QVQLVESGGGLVQAGGSLRLSCAASGIIFTKYVMGWYRQAPGKERELVAAINTDGGSTRYADSVKGRFTISRDNAKNTVYLQMNSLKPEDTAVYYCAAVSSRRPGYEYYYWGQGTQVTVSS | high polyreactivity |
| QVQLVESGGGLVQAGGSLRLSCAASGSTFKTYAMGWYRQAPGKERELVAAITSSGGRTYYADSVKGRFTISRDNAKNTVYLQMNSLKPEDTAVYYCAAGRRSYNQLDYWGQGTQVTVSS | high polyreactivity |
| QVQLVESGGGLVQAGGSLRLSCAASGRTFSNYAMGWYRQAPGKERELVAAISQRGGSTYYADSVKGRFTISRDNAKITVYLQMNSLKPEDTAVYYCNALFRLRAYADMDYWGQGTQVTVSS | high polyreactivity |
| QVQLVQSGGGVVQAGGSLRLSCAASGRIFNTNAMGWYRHAPGKERELVAGITDSGDSTYYADSVKGRFTISRDNAKITVYLQMYSLKPEDSAVYYCATDPASPYIYDFWGLGTQVTVSS | low polyreactivity |
| QVQLVESGGGLVQAGGSLRLSWAASGGNFEYNAMGWYRQAPGKERELVAAITNGGSTNYADSVKGRFSISRDNAKNTVYIQMNSLKPDDTAVYYCATVFFVLPPTRFASWGQGTQVTVSS | low polyreactivity |
| QVQLVESGGGLVQAGGSLRLSCAASGSTFVTYAMGRYRQAPGTERELVAAISRRGGSTYYADSVKGRFTISRDNAKYTVYLQLNSLKPVDTAFYYCAAVQGSYSRDGADDYWGQGTQVTVSS | high polyreactivity |
| QVQLVESGGGLVQAGGSLRLSCAASGFISYENAMGWYRQAPGKERELVAAISSGGSTNYADSVKGRFTISRDNAKNTVYFQMNSLKPEDTAVYYCAATLPGWYNEDDSWGQGTQVTVSS | low polyreactivity |
| QVQLVESGGGLVQAGGSLRLSCAASGITFRRSAMGWYRQAPGKEREVVAAISIRGGRTYYADAVKGRFTISRDNAKNTVYLQMNSLIPEDTAVYYCAADGVYALDVESDYWGLGTQVTVSS | high polyreactivity |
| QVQLVESGGGLVQAGGSLRLRCAATGHIFYYYTMGWSRQAPGKERELVAGITIGGSTNYADSVKGRFTISRDNAKNTVYLQMKSLKPEDTAVYYCNVVKYVYIYSYWEYYYWGQGTQVTVSS | low polyreactivity |
| QVQLVESGGGLVQAGGSLRLSCAASGSTFSIYAMGWYRQAPGKERELVAAITRRSGSTYYADSVKGRITISRDNAKNTVSLQMKSLKPEDTAVYYCAADTWRTDYTSSYYKNRDSWGQGTQVTVSS | high polyreactivity |
| QVQLVESGGGLVQAGGSLRLSCAASGFIFGTYVMGWYRQAPGKERELVAAISESGGRTYYADSVKGRFTISRDNAKNTVYLQMNSLKPEDTAVYYCNAPHHRYDWGQGTQVTVSS | high polyreactivity |
| QVQLVESGGGLVQAGGSLRLSCAASGSTFSSYAMGWYRQAPGKEREFDAAINTDGGSTYYADSVKGRFTISRDNAKNTVYLQMNSLKPEDTAVYYCAARYYWPWYSSYDYWGQGTQVTVSS | low polyreactivity |
| QVQLVESGGGLVQAGGSLRLSCAASGFTFPSNAMGWYRQAPGKERELVAAISSTDSTNYADSVKGRFTISRDNAKNTVYFQMNSLKPEDTAVYYCAKRYPRYRYNTRGNDYWGQGTQVTVSS | low polyreactivity |
| QVQLVESGGGLVQAGGSLRLSCAAYGRIFDGNAMGWYRQAPGKERELVAAITSRGGRTYYADSVKGRFTISRDNAKNTVYLQMNSLKPEDTAVYYCNTRVKSYGHYDYWGQGTQVTVSS | high polyreactivity |
| QVQLVESGGGLVQAGGSLRLSCAASGRTFTYNVMGWYRQAPGKERELVAAISSGGGTISADSVKGRFTISRDNAKHTVYLQMNSLKPEDTAVYYCAAKYAWRLLEMYYWGQGTQVTVSS | low polyreactivity |
| QVQLVESGGGLVHAGGSLRLSCAASGSTFAYNAMGWYRQAPGKERELVDAIDWSDGITYYADSVKGRFTISRDNAKNTVYLQMNSLKPEDTAVYYCAAEDGYTDSRAYGYDYWGQGTQVTVSL | low polyreactivity |
| QVQLVESGGGLVQAGGSLRLSCAASGFTFYRYAIGWYRQAPGKETQFFASISRSGGSTYYADSVKGRFTISRDNAKNTVYLQMNSLKPEDTEVYYCAKSYTSSPFRIRDYWGQGTQVTVSS | high polyreactivity |
| QVQLVESGGGLVQAGGSLRLSCAASGFIFHQNAMGWYRQAPGKERELVAAITRSGTSTYYADSVKGRFTISRDYAKISVYLQMNSLKPVDTAVFYCANDPVRVGRFGYEYWGKGTQVTVSS | low polyreactivity |

| Sequence | polyreactivity (PSR sort gate) |
| --- | --- |
| QVQLVESGGGLVQAGGSLRLSCAASGSTFGFNAMGWYRQAPGKERELLPLFWSGGSTYYADSVKGRFTISRDNAKNTVYLQMYSLKPEDTAVYYCNKDSPPITRYDYWGQGTQVTVSS | low polyreactivity |
| QVQLVESGGGLVQAGGSLRLSCAASGSTFSRYAMGWYRQAPGKDRELVAAINRSGGSTYYADSVKGRFTISRDNAKNTVYLQMNSLKPEDTAVYYCNKYTGYLHDYWGQGTQVTVSS | high polyreactivity |
| QVQLVESGGGLVQAGGSLRLSCAASGRTFARNALGWYRQAPGKERELVAAITKGGGSTYYADSVKGRFTISRDNAKNTVYLQMNSLKPEDTAVYYCDAYKPSTRRYDYWGQGTQVTVSS | high polyreactivity |
| QVQLVESGGGLVQAGGSLRLSCAASGRIIGIKAMGWYRLAPGKEMELVATITSGGDTNYADSVKGRFTISRDNAKNTVYIQMNSLKPEDTAVYYCNAESYGLGIGYEYWGQGTQVTVSS | low polyreactivity |
| QVQLVESGGGLVQAGGSLRLSCAASGNTFKYYAMGWYRQAPGKERVLVATISRTAGSTYYADSVKGRFTISRDNAKNTVYLQMNSLKPEDTAVYYCNKDRGHPFKYDYWGQGTQVTVSS | low polyreactivity |
| QVQLVESGGGLVQAGGSLRLSCAASGRTFRHNTMGWYRQAPGKEREFVAVITTSGGSTYYADSVKGRFTISRDNAKNTVYLQMNSMKPEDTAVYYCNAKYHLSRSTYYYWGQGTQVTVSS | high polyreactivity |
| QVQLQESGGDLEQAGGSLRLSCTASGTISDVRDMGWYRQAPGKERELVATISYVTITYYSDSVKGRFTISRASEKHRVSADDEPETGRYRGVLLRYYWGLGTQVTVSS | low polyreactivity |
| QVQLVESGGGLLQAGGSLRLSCAASGRTSVRYAMGWYRQAPGKERELVAAISWSGGSTYYADSVKGRFTISRDHAKNTVYLQMNCLKPEDTAVYYCNAQHARGYYYWGQGTQVTVSS | low polyreactivity |
| QVQLVESGGGLVQAGGSLRLSCAASGRIFYLNGKGWYRQAPGKERELVAAISSSDDSTYYADSVKGRFTISRDNAKNTVYLQMKSLKPEDTAVYYCAAGYHQVQNYGDAYYWSELYSWGQGTQVTVSS | low polyreactivity |
| QVQLVESGGGLVQAGGSLRLSCAASGFTFYRYAMGWYRQAPGKERELVAAISQRGGRTYYADSVKGRFTISRDNAKTTVYLQMNSLKPEDTAVYYCNARYSGYGLYDYWGQGTQVTVSS | high polyreactivity |
| QVQLVESGGGLVQAGGSLRLSCAASGSIFYHNAMGWYRQAPGKERELVAAITWSGSTTYYADSVKGRFTISRDNAKNTVYLQMKSLKPEDTAVYYCNAGNRHGHYDYWGQGTQVTVSS | low polyreactivity |
| QVQLVESGGGLVQAGGSLRLSCAASGFTFSVYAMGWYRQAPGKERELVAAISRGGGGTYYADSVKGRFTISRDNAKNTVYLQMNSLKPEDTAVYYCNAAGYPQYKGYDYWGQGTQVTVSS | high polyreactivity |
| QVQLVESGGGLVQAGGRLRLSCAASGSIFVGNTMGWYRQAPGKERELVAAISRTARTYYADSVKGRFTISRDNAKNTVYLQMNSLKPEDTAVYYCARASTQVKYGYEYWGQGTQVTVSS | high polyreactivity |
| QVQLVESGGGLVQAGGSLRLSCAASGRIFVKYGMGWYRQAPGKERELVAAISWTGGSTYYADSVKGRFTISRDNAKNTVYLQMNSLKPEDTAVYYCAAESWFKYDYWGQGTQVTVSS | low polyreactivity |
| HVQLVESGGGLVQAGGSLRLSCAASGSSLDYYVMGWYRQAPGNERELVAAIRGGGSTYYADSVKGRFTISRDNAKNTVYLQMKSLKPEDTEVYYCAKDSQTARDFDYWGQGTQVTVSS | low polyreactivity |
| QVQLVESGGGLVQAGGSLRLSCAASGRTFGINAMGWYRQAPGKERELVAVISGSGGNTYYADSVKGRFTISRDNEKNTVYLQMNSLKPEDTAVYYCATRYEKFRYDYWGQGTQVTVSS | low polyreactivity |
| QVQLVESGGGLVQAGGSLRLSCAASGRTFRLYAMGWHRQAPGKERELVAAITRGGRTNYADSVKGRFTISRDNAKNTVYLQMNSLKPEDTAVYYCAARYVERHTDYYYWGQGTQVTVSS | low polyreactivity |
| QVQLVESGGGLVQAGGSLRLSCASSGRIFWRNTMGWYRQAPVKETEFVASINGSGGSTSYADSVKGRFTISRDNAMNTVYLQMISLKPEDTEVDYCATDVTYQDVQLDYWGQRTQVTVSS | low polyreactivity |
| QVQLVESGGGLVQAGGSLRLSCAASGRTFRWYAMGWYRQAPGKERELVATITSGGSTNYADSVKGRFTISRDNAKNSVYLQMNSLKPEDTAVYYCAAWSYAYYYRLRYVSHDYWGQGTQVTVSS | high polyreactivity |
| QVKLVESGGGLVQAGGSLRLSCAASGGIFTDYTMGWSRQAPGKERELVAAITWTGGSTYYADSVKGRFTISRYNAKNTVYLQMNSLKPEDTAVYYCSADDYWVNLDYWGQGTQVNVSS | low polyreactivity |
| QVQLVESGGGLVQAGGSLRLSCAASGRIFGGNVRGWYRQAPGKERELVAGISFSGGSTYYADSVKGRFTISRDNAKNTVYLQMNSLKPEDTAHYYCAASTYQPGALPFDYWGQGTQVTVSS | low polyreactivity |
